Target: Clathrin triskelion with attached Gd-DTPA-ITC, as assembled into clathrin cages (rat (endogenous in rat liver and brain)) (UniProt P11442)
Experiment: negative-stain transmission electron microscopy; cages assembled from modified triskelia mixed with AP-2 proteins 3:1 (v/v), dialysed against 50 mM MES Na pH 6.5, 100 mM NaCl, 2 mM DTT at 4°C; cages pelleted at 60,000 rpm and resuspended in 20 mM MES Na pH 6.2, 2 mM DTT; 0.05 mg/ml on carbon-coated grids, 1% uranyl acetate

stoichiometry N (triskelia per cage): 36
Substance: Clathrin triskelion with attached Gd-DTPA-ITC, as assembled into clathrin cages (from UniProt P11442 1-1675; P08081 1-248) (complex)

— publication PMC3341379
